Reference: patent US20180155451A1 (published 2018)

T1: FcγRIIb extracellular domain with C-terminal His tag (human, UniProt P31994 43-217)
T1 construct: extracellular domain; also called 2b; FcgRIIb
T1 sequence (looked up): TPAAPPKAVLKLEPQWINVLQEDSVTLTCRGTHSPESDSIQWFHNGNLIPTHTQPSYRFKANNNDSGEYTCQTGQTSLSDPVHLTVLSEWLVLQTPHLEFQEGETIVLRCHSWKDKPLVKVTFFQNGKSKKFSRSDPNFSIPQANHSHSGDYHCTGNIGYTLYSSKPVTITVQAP

T2: FcγRIIa H (human, UniProt P12318 34-217)
T2 construct: extracellular domain; also called FcγRIIa type H; 2aH
T2 sequence (looked up): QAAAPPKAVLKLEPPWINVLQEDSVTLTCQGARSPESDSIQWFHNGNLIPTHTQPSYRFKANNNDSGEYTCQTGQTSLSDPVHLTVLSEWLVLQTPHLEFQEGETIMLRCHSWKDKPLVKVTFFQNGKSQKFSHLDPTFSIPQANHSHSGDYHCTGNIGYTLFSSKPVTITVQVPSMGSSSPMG

T3: FcγRIIb (human, UniProt P31994 43-217)
T3 construct: extracellular domain; also called 2b
T3 sequence (looked up): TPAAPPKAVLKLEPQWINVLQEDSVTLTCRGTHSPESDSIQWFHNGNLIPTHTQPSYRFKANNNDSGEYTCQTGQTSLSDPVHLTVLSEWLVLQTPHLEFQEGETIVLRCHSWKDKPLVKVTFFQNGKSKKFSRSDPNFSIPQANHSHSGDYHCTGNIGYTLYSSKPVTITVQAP


How the values were obtained:
[1] = target: T1, FcγRIIb extracellular domain with …; assay: SPR, relative to GpH7-A5/GpH7-B3/GpL16-k0
[2] = target: T4, FcγRIIIa extracellular domain with C-terminal His tag (human, UniProt P08637 17-208); assay: SPR, relative to GpH7-A5/GpH7-B3/GpL16-k0
T4 construct: extracellular domain; also called 3a; FcgRIIIa

[3] = target: T4, FcγRIIIa extracellular domain with …; assay: SPR; He/Con_3a over He/Con_2b (FcγRIIb)
FcγRIIa H [4] = target: T2, FcγRIIa H; assay: SPR; He/Con_2aH divided by He/Con_2b (FcγRIIb)
Method: (§1) The heterodimerized antibodies He Abs in which one of the H chains was introduced with an alteration were assayed for their binding activities to each activating FcγR and inhibitory FcγR according to the method described in Example 4. […] The activating FcγRs in FIGS. 26, 27, 28, and 29 are FcγRIa, FcγRIIa (R), FcγRIIa (H), and FcγRIIIa, respectively.
(§2) Analysis of interaction between objective antibody and the FcγR was carried out using Biacore T100 (GE Healthcare). HBS-EP+ (GE Healthcare) was used as the running buffer, and the measurement temperature was set to 25° C. Chips produced by immobilizing the antigen peptide by the amine coupling method to a Series S Sencor Chip CM5 (GE Healthcare), or alternatively, chips produced by allowing preliminarily biotinylated antigen peptides to interact with and immobilize onto a Series S Sensor Chip SA (certified) (GE Healthcare) were used. Antibodies of interest were captured onto an antigen peptide-immobilized chip, and allowed to interact to each FcγR diluted with running buffer. To regenerate and repeatedly use the chip, the antibodies captured on the chip were washed off by reacting 10 mM glycine-HCl, pH 1.5.

FcγRIIb = target: T3, FcγRIIb; assay: SPR (Biacore), relative binding vs GpH7-A5/GpH7-B3/GpL16-k0
Method: as §1, §2

FcγRIIa H [5] = target: T2, FcγRIIa H; assay: as above
Method: as §1, §2

T4 sequence (P08637 17-208): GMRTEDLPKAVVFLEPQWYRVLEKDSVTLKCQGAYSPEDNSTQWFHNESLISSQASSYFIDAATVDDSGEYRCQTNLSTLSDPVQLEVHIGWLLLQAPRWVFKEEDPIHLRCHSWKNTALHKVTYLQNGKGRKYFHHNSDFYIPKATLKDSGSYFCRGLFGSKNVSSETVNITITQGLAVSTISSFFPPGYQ

Binder	He/Con_2b [1] [control=100]	He/Con_3a [2] [control=100]	He_3a/2b (IIIa/IIb) [3] [ratio]	He_2aH/2b (IIaH/IIb) (FcγRIIa H [4]) [ratio]	He/Con_2b (FcγRIIb)	He/Con_2aH (FcγRIIa H [5])
GpH7-A5/GpH7-B3 variant L235_11K/GpL16-k0 (antibody, human IgG1, kappa, He Ab: alteration in one H chain only; also called He Ab) heavy 1: not shown heavy 2: not shown light: DIVMTQSPLSLPVTPGEPASISCQASESLVHSNRNTYLHWYLQKPGQSPQLLIYKVSNRFSGVPDRFSGSGSGTDFTLKISRVEAEDVGVYYCSQNTHVPPTFGQGTKVEIERTVAAPSVFIFPPSDEQLKSGTASVVCLLNNFYPREAKVQWKVDNALQSGNSQESVTEQDSKDSTYSLSSTLTLSKADYEKHKVYACEVTHQGLSSPVTKSFNRGEC	6.3	38.1	6.06	–	–	–
GpH7-A5/GpH7-B3 variant L235_13S/GpL16-k0 (antibody, human IgG1, kappa, He Ab: alteration in one H chain only; also called He Ab) heavy 1: not shown heavy 2: not shown light: DIVMTQSPLSLPVTPGEPASISCQASESLVHSNRNTYLHWYLQKPGQSPQLLIYKVSNRFSGVPDRFSGSGSGTDFTLKISRVEAEDVGVYYCSQNTHVPPTFGQGTKVEIERTVAAPSVFIFPPSDEQLKSGTASVVCLLNNFYPREAKVQWKVDNALQSGNSQESVTEQDSKDSTYSLSSTLTLSKADYEKHKVYACEVTHQGLSSPVTKSFNRGEC	48.2	69.6	1.44	–	–	–
GpH7-A5/GpH7-B3 variant L235_14T/GpL16-k0 (antibody, human IgG1, kappa, He Ab: alteration in one H chain only; also called He Ab) heavy 1: not shown heavy 2: not shown light: DIVMTQSPLSLPVTPGEPASISCQASESLVHSNRNTYLHWYLQKPGQSPQLLIYKVSNRFSGVPDRFSGSGSGTDFTLKISRVEAEDVGVYYCSQNTHVPPTFGQGTKVEIERTVAAPSVFIFPPSDEQLKSGTASVVCLLNNFYPREAKVQWKVDNALQSGNSQESVTEQDSKDSTYSLSSTLTLSKADYEKHKVYACEVTHQGLSSPVTKSFNRGEC	46.8	75.8	1.62	–	–	–
GpH7-A5/GpH7-B3 variant L235_18N/GpL16-k0 (antibody, human IgG1, kappa, He Ab: alteration in one H chain only; also called He Ab) heavy 1: not shown heavy 2: not shown light: DIVMTQSPLSLPVTPGEPASISCQASESLVHSNRNTYLHWYLQKPGQSPQLLIYKVSNRFSGVPDRFSGSGSGTDFTLKISRVEAEDVGVYYCSQNTHVPPTFGQGTKVEIERTVAAPSVFIFPPSDEQLKSGTASVVCLLNNFYPREAKVQWKVDNALQSGNSQESVTEQDSKDSTYSLSSTLTLSKADYEKHKVYACEVTHQGLSSPVTKSFNRGEC	54.9	67.3	1.23	–	–	–
GpH7-A5/GpH7-B3 variant L235_19Q/GpL16-k0 (antibody, human IgG1, kappa, He Ab: alteration in one H chain only; also called He Ab) heavy 1: not shown heavy 2: not shown light: DIVMTQSPLSLPVTPGEPASISCQASESLVHSNRNTYLHWYLQKPGQSPQLLIYKVSNRFSGVPDRFSGSGSGTDFTLKISRVEAEDVGVYYCSQNTHVPPTFGQGTKVEIERTVAAPSVFIFPPSDEQLKSGTASVVCLLNNFYPREAKVQWKVDNALQSGNSQESVTEQDSKDSTYSLSSTLTLSKADYEKHKVYACEVTHQGLSSPVTKSFNRGEC	42.6	70.5	1.65	–	–	–
GpH7-A5/GpH7-B3 variant S267_01G/GpL16-k0 (antibody, human IgG1, kappa, heterodimerized IgG1, mutation in one H chain only; also called He Ab) heavy 1: not shown heavy 2: not shown light: DIVMTQSPLSLPVTPGEPASISCQASESLVHSNRNTYLHWYLQKPGQSPQLLIYKVSNRFSGVPDRFSGSGSGTDFTLKISRVEAEDVGVYYCSQNTHVPPTFGQGTKVEIERTVAAPSVFIFPPSDEQLKSGTASVVCLLNNFYPREAKVQWKVDNALQSGNSQESVTEQDSKDSTYSLSSTLTLSKADYEKHKVYACEVTHQGLSSPVTKSFNRGEC	–	–	–	0.68	105 % of control He Ab (=100)	71.3 % of control He Ab (=100)
GpH7-A5/GpH7-B3 variant H268_01G/GpL16-k0 (antibody, human IgG1, kappa, heterodimerized IgG1, mutation in one H chain only; also called He Ab) heavy 1: not shown heavy 2: not shown light: DIVMTQSPLSLPVTPGEPASISCQASESLVHSNRNTYLHWYLQKPGQSPQLLIYKVSNRFSGVPDRFSGSGSGTDFTLKISRVEAEDVGVYYCSQNTHVPPTFGQGTKVEIERTVAAPSVFIFPPSDEQLKSGTASVVCLLNNFYPREAKVQWKVDNALQSGNSQESVTEQDSKDSTYSLSSTLTLSKADYEKHKVYACEVTHQGLSSPVTKSFNRGEC	–	–	–	0.69	144 % of control He Ab (=100)	99.2 % of control He Ab (=100)
GpH7-A5/GpH7-B3 variant H268_02A/GpL16-k0 (antibody, human IgG1, kappa, heterodimerized IgG1, mutation in one H chain only; also called He Ab) heavy 1: not shown heavy 2: not shown light: DIVMTQSPLSLPVTPGEPASISCQASESLVHSNRNTYLHWYLQKPGQSPQLLIYKVSNRFSGVPDRFSGSGSGTDFTLKISRVEAEDVGVYYCSQNTHVPPTFGQGTKVEIERTVAAPSVFIFPPSDEQLKSGTASVVCLLNNFYPREAKVQWKVDNALQSGNSQESVTEQDSKDSTYSLSSTLTLSKADYEKHKVYACEVTHQGLSSPVTKSFNRGEC	–	–	–	0.68	167 % of control He Ab (=100)	114 % of control He Ab (=100)
